Values joined by “and” are separate entries in the source; they are usually repeats but may differ in a detail not shown here. Equal values may be shown once. Read-outs that look alike come from different tables or passages of the source.
Experiments:
Test in all cases: AUC
[1] = molecular target: 22S protein of the mitotic apparatus, Arbacia punctulata (Arbacia punctulata)
[2] = molecular target: 22S protein of the mitotic apparatus, Arbacia punctulata (Arbacia punctulata); remark: listed apart in the source
[3] = molecular target: 22S protein of the mitotic apparatus, Arbacia punctulata (Arbacia punctulata); remark: listed apart in the source
[4] = molecular target: 22S protein of the mitotic apparatus, Arbacia punctulata (Arbacia punctulata); remark: listed apart in the source
[5] = molecular target: 22S protein of the mitotic apparatus, Arbacia punctulata (Arbacia punctulata); remark: listed apart in the source
[6] = molecular target: 22S protein of the mitotic apparatus, Arbacia punctulata (Arbacia punctulata); remark: listed apart in the source
[7] = molecular target: 22S protein of the mitotic apparatus, Strongylocentrotus droebachiensis (Strongylocentrotus droebachiensis)
[8] = molecular target: 22S protein of the mitotic apparatus, Strongylocentrotus droebachiensis (Strongylocentrotus droebachiensis); remark: listed apart in the source
[9] = molecular target: 22S protein of the mitotic apparatus, Strongylocentrotus droebachiensis (Strongylocentrotus droebachiensis); remark: listed apart in the source
[10] = molecular target: the molecule itself
[11] = molecular target: the molecule itself; remark: listed apart in the source

## 22S protein of the mitotic apparatus, Arbacia punctulata (natural protein)
[1]
  stoichiometry N: 2
[2]
  stoichiometry N: 2
[3]
  stoichiometry N: 2
[4]
  stoichiometry N: 4 and 2 and 6
[5]
  stoichiometry N: 6 and 4 and 2
[6]
  stoichiometry N: 8

## 22S protein of the mitotic apparatus, Strongylocentrotus droebachiensis (natural protein)
[7]
  stoichiometry N: 2
[8]
  stoichiometry N: 2
[9]
  stoichiometry N: 8

B1: 22S protein of the mitotic apparatus, Strongylocentrotus purpuratus (natural protein)
chain: VPSGSLGSRPGTCPPQPSDQVMIEATRCSYVYGLTWDWNCNSQGQENYKCCQYENDIRICVPPIPADVDEEVGVEQPSQSVDQVRQAIQKTQDFIRKVGLYPAPDQRRRTTPTPDTVRWCVSSRCQMTKCQRMVSEFTYSPNMVPRKQWKCTQATSQEQCMFWIEQGWADIMTTREGQVYSANTTFNLKPIAYETTINDQQPEIQILKHYQNVTFALKSSRLVNPNTFSELRDKTTCHAGIDMPDFDMPASFADPVCNLIKEGVIPVTGNYIESFSDFVQESCVPGVLNMTYNKNGTYPLSLVTLCEDQQYKYSGIKGALSCLESGKGQVTFVDQKVIKKIMSDPNVRDNFQVVCRDESRPLDEEIFTDVTCHVGHTARPTIFINKNNTQQKETDIKTLVVKMMELYGNTDRDVNFNIFDSSVYDCGKCQMTGKPLNKNLIFLEESNTMKIVDDSKVYAGEVYAAYNVCSKLVPKPRAKICVTNVTEYEACRRFKGIAENIPEVKKVAWGCVLANSSIECMQAVHNNTADLFKANPMETFIAGKEFLLDPLMSVHRNDSVTMNHTYTRTLAVIKRSSLAKFPGLLSVPEGQPKYIKDLWKLKICSAGLKNFSAFHSPIGYLLANGTIPRIGSVFESVNRYFQATCVPEIEPETWRLDSDLLLGREMNWGFSSLNMYNFTGQEWLLWNTPATWNFLTYNRKVSTGLDIKKLIELKKQNLTSHIFNQNLSSPRNVELLDDLVGVEGISDLVKGVQDTIGPEGKQKMNMLRDRLSNSFPNFEAVRTLSDKVDIVNKMKDARQQRLQNKDHPFGNVIQETFQGHLMVDVFSKLLELRSDKISTLEEIISHVKTIPYLTDFKDVEITTVLKHPAIMSYVEIYFPRLSQTFVEPFDNVELREREFNRYTNPLWLSPKVHTYLDLVKNHQTEITKTCNSNLPLNFKGYEGALRCLKSGVADLASSTSRPSVTRTLRDTDLSTGWVHLQRPPPSLPQRQVVEIDVNMDIAKVCNFGEVMNPVLVTAYNTSGSWRWNITKALMIAHQSVALPALFGEGTVMGKDYDMLLPIAPLNQSYQPFLGSKPLRSMEAIVKASSYDWFKDQTGICYGETYTNIVKQRNETCQAIVKDVTCVGTPRMKKISVGRFGAKQFKMIKMCSRPSKFVRKMADFQCDNGFGYLKPVITAVACECMLCEEMIEYNTSFTEDNMWSDVSNKYVLTGEQDIYRQIPIWGNNSYFYDHTLNKNFELGNHSIIVEHVQTVVVERPSPGILSQVNSEVDPEVQVQMDSASLTKTCETVWNGQSWLPERFQGYKTSGSCVVPETGANAKSRVDRFRQIMQRKQQLVDHHH
modifications: carbohydrate 5-6% (orcein assay) or 7-8% (anthrone test), several per cent glucosamine; sites not stated
[10]
  stoichiometry N: 2
[11]
  stoichiometry N: 8

Reference: article PMC2107256 (The Journal of Cell Biology, 1967)
